{"source": "patent US20230405140A1", "about": "“ANTI-CD56 ANTIBODY-DRUG CONJUGATES AND THEIR USE IN THERAPY” (MCSAF INSIDE ONCOLOGY, priority 2020, published 2023)", "molecules": {"B1": {"name": "LM: Lorvotuzumab Mertansine, anti-CD56 ADC coupled to mertansine (DM1) (conjugate, chains of the INN, looked up)", "VH": "QVQLVESGGGVVQPGRSLRLSCAASGFTFSSFGMHWVRQAPGKGLEWVAYISSGSFTIYYADSVKGRFTISRDNSKNTLYLQMNSLRAEDTAVYYCARMRKGYAMDYWGQGTLVTVSS", "VL": "DVVMTQSPLSLPVTLGQPASISCRSSQIIIHSDGNTYLEWFQQRPGQSPRRLIYKVSNRFSGVPDRFSGSGSGTDFTLKISRVEAEDVGVYYCFQGSHVPHTFGQGTKVEIK", "modifications": "mertansine (DM1)"}, "B2": {"name": "L: Lorvotuzumab (antibody, chains of the INN, looked up, V domains shown)", "VH": "B1 VH", "VL": "B1 VL"}, "B3": {"name": "L-002: Deglycosylated Lorvotuzumab: treated with PNGase F to remove the glycosylation at Asn297 (antibody, chains of the INN, looked up, V domains shown)", "VH": "B1 VH", "VL": "B1 VL", "modifications": "deglycosylated with PNGase F", "notes": "Deglycosylated Lorvotuzumab: treated with PNGase F to remove the glycosylation at Asn297"}, "B4": {"name": "LM-002: Deglycosylated Lorvotuzumab Mertansine: treated with PNGase F to remove the glycosylation (conjugate, chains of the INN, looked up)", "VH": "B1 VH", "VL": "B1 VL", "modifications": "mertansine; deglycosylated", "notes": "Deglycosylated Lorvotuzumab Mertansine: treated with PNGase F to remove the glycosylation"}, "B5": {"name": "MF-L-MMAE: L conjugated to MMAE with 6-(2,6-bis(bromomethyl)pyridin-4-yl)amido-N-hexanamide-valine-citrulline-p-aminobenzoyl carbamate (conjugate, chains of the INN, looked up)", "VH": "B1 VH", "VL": "B1 VL", "modifications": "MMAE via val-cit PAB linker", "notes": "L conjugated to MMAE with 6-(2,6-bis(bromomethyl)pyridin-4-yl)amido-N-hexanamide-valine-citrulline-p-aminobenzoyl carbamate"}}, "key": {"H209": {"system": "H209", "test": "XTT assay, ADC-mediated cytotoxicity", "format": "cell-based", "details": "4 days, read-out: H209 n = 3 IC50", "description": "(§1) To evaluate cell viability and cellular metabolic activity, XTT assays were performed according to standard protocols. WaGa, PeTa, H69, H209, H660 cell lines were plated in 3 replicates in a 96-well plate with 5.10^4 cells/well. […] Untreated cells were used as viability reference. Cells treated with 1% Triton X100 were used as cell death positive control. After 4 days, 25 μL XTT reagent at 1 mg/mL (Alfa Aesar, thermo Fisher) with N-methyl dibenzopyrazine methyl sulfate (PMS) activator (25 μM) was added per well and absorbance was measured at 450 nm after 4 h incubation. Absorbance at 620 nm was used as a reference. Three independent experiments have been performed."}, "H69": {"system": "H69", "test": "XTT assay, ADC-mediated cytotoxicity", "format": "cell-based", "details": "4 days, read-out: H69 n = 3 IC50", "description": "as §1"}, "PeTa": {"system": "PeTa", "test": "XTT assay, ADC-mediated cytotoxicity", "format": "cell-based", "details": "4 days, read-out: PeTa n = 3 IC50", "description": "as §1"}, "WaGa CRISPR CD56": {"system": "WaGa CRISPR CD56", "test": "XTT assay, ADC-mediated cytotoxicity", "format": "cell-based", "details": "4 days, CD56− cells, read-out: WaGa CRISPR CD56 n = 3 IC50", "description": "as §1"}, "WaGa": {"system": "WaGa", "test": "XTT assay, ADC-mediated cytotoxicity", "format": "cell-based", "details": "4 days, read-out: WaGa n = 3 IC50", "description": "as §1"}, "MKL-1 CRISPR CD56": {"system": "MKL-1 CRISPR CD56", "test": "XTT assay, ADC-mediated cytotoxicity", "format": "cell-based", "details": "4 days, CD56− cells, read-out: MKL-1 CRISPR CD56 n = 3 IC50"}, "[1]": {"system": "CD56− cells (CRISPR-MCC cell lines WaGa and MKL-1)", "test": "XTT assay, summary over CD56- CRISPR-MCC cell lines", "format": "cell-based", "details": "at high doses; in words", "description": "as §1"}, "primary NK cells": {"system": "primary NK cells", "test": "Killing effect on primary NK cells (Annexin V / 7-AAD flow cytometry)", "format": "cell-based, human", "details": "for Killing effect on primary NK cells (ADCC): after 4 h of incubation, in words; for Killing effect on primary NK cells: after 4 days of incubation", "description": "(§2) Primary natural killer cells (NK) and monocytes were obtained from blood of healthy adult volunteers at the Etablissement Français du Sang, according to institutional research protection guidelines agreement N° CA-REC-2019-188, Centre Val de Loire, France. Ficoll density centrifugation step (Eurobio) was performed to isolate peripheral blood mononuclear cells (PBMC).\nNK cells were isolated from PBMC by negative selection (NK cell isolation kit human, Miltenyi Biotec) with purity higher than 95%. NK cells were cultured for up to 36 h in RPMI 1640 supplemented with 10% FCS, 1% penicillin and streptomycin, 1% L-glutamine and 100 UI/mL IL-2 at 37° C., 5% CO2 at 1.10^6 cells/mL."}, "neutrophils": {"system": "neutrophils", "test": "Killing effect on neutrophils (Annexin V / 7-AAD flow cytometry)", "format": "cell-based, human", "details": "after 4 h of incubation; CD56 negative cells; at high concentration", "excerpt": "The neutrophils were isolated directly from whole blood of healthy adult volunteers at the Etablissement Français du Sang, according to institutional research protection guidelines agreement N° CA-REC-2019-188, Centre Val de Loire, France, by negative selection, using the kit (MACSxpress® Whole Blood Neutrophil Isolation Kit, MiltenyBiotech™). The neutrophils were used directly following their isolation and then resuspended in HBSS buffer (1X) (Gibco 15266355), at 1×10^6 cells/mL.\n(§3) 5% of CO2. […] All products were tested after 4 days treatment on NK cells and 4 h on monocytes and neutrophils."}, "[2]": {"system": "solid tumors expressing CD56", "details": "several phase I studies; in words; cited from earlier work"}, "[3]": {"system": "small cell lung carcinoma", "details": "phase II, in combination with chemotherapy (cisplatin-etoposide); in words; cited from earlier work"}, "[4]": {"system": "CD56+ cell lines (WaGa, PeTa, MKL-1, H69, H209, H660)", "test": "Flow cytometry binding of Alexa Fluor 750 labelled antibodies, CD56+ cell lines", "details": "4° C., 30 minutes, in words", "description": "(§4) Binding levels of L and mAb-003 have been evaluated on several tumor cell lines: MCC (WaGa, PeTa, MKL-1), SCLC (H69, H209) and prostate cancers (H660) as well as WaGa, PeTa and MKL-1 CD56-knocked out using CRISPR technology.\n(§5) The L and mAb-003 were labelled with Alexa Fluor 750 (Alexa Fluor 750 Protein Labelling Kit, Invitrogen) to allow their detection by flow cytometry. The labelled antibodies were incubated with 1.10^5 cells at 4° C. for 30 minutes, then cells were washed twice with PBS supplemented with 1% FCS, and the binding was analysed by Flow cytometry on Cytoflex."}, "[5]": {"system": "CD56− cells (CRISPR WaGa, PeTa, MKL-1)", "test": "Flow cytometry binding of Alexa Fluor 750 labelled antibodies, CD56- CRISPR cell lines", "details": "4° C., 30 minutes, in words", "description": "as §4, §5"}, "monocytes": {"system": "monocytes", "test": "Killing effect on monocytes (Annexin V / 7-AAD flow cytometry)", "format": "cell-based, human", "details": "after 4 h of incubation; in words", "description": "as §2\nMonocytes were isolated from PBMC by positive selection using anti-CD14 MicroBeads (Miltenyi Biotec) according to manufacturer recommendations. Monocytes were cultured in serum-free X-VIVO-15 medium (Lonza) at 1.10^6 cells/mL.\nas §3"}, "WaGa xenograft": {"system": "WaGa xenograft", "test": "Efficacy in vivo, WaGa xenograft, ADC 5 mg/kg twice a week", "set-up": "species or system NOD/SCID mice", "details": "5 mg/kg IV twice a week; day 30", "description": "Xenograft mice model: eighteen 7-week-old females NOD/SCID (Janvier Labs) mice were maintained under aseptic conditions. All animal procedures were approved by local ethics committee (Apafis #26772-2020072715262737 v2). WaGa cell line was used for tumor induction, as previously described in [9]. Mice received one subcutaneous injection of 1.10^7 WaGa cells with 10% matrigel on the back. General state and weight were monitored twice a week during the procedure. Tumor volume was measured with a caliper and tumor volume was calculated according to the formula: π/6×width×length×height. […] Mice were sacrificed 30 days after inclusion or when reaching one predefined endpoint (tumor ulceration, weight loss >20%, or prostration). Tumors, heart, lungs, spleen, and liver were removed for macroscopic examination. After dissection, tumor weight and volume were assessed. To detect metastatic spread and potential toxicity of ADCs, whole tumors and organs (heart, lungs, spleen, and liver), were formalin-fixed and paraffin embedded for microscopic evaluation to evaluate architecture changes, inflammatory infiltrate, necrosis, vascular changes, fibrosis and liver steatosis."}}, "data": [{"molecule": "B1", "values": [{"measurement": "IC50", "setting": "H209", "result": 100, "unit": "nM"}, {"measurement": "IC50", "setting": "H69", "result": 62.6, "unit": "nM"}, {"measurement": "IC50", "setting": "PeTa", "result": 26.9, "unit": "nM"}, {"measurement": "IC50", "setting": "WaGa CRISPR CD56", "result": 75.6, "unit": "nM"}, {"measurement": "IC50", "setting": "WaGa", "result": 75.6, "unit": "nM"}, {"measurement": "IC50", "setting": "MKL-1 CRISPR CD56", "result": 74.1, "unit": "nM"}, {"measurement": "Cytotoxicity on CD56− cells", "setting": "[1]", "result": "nonspecific cytotoxicity"}, {"measurement": "Killing effect on primary NK cells (ADCC)", "setting": "primary NK cells", "result": "ADCC killing effect was observed"}, {"measurement": "Killing effect towards neutrophils", "setting": "neutrophils", "result": "around 15%"}, {"measurement": "Tolerance", "setting": "[2]", "result": "acceptable tolerance"}, {"measurement": "Survival benefit", "setting": "[3]", "result": "did not demonstrate any survival benefit"}]}, {"molecule": "B2", "values": [{"measurement": "Binding to CD56+ cells", "setting": "[4]", "result": "lower binding level"}, {"measurement": "Binding to CD56− cells (CRISPR cells)", "setting": "[5]", "result": "binding to CD56− cells"}, {"measurement": "Killing effect on primary NK cells (ADCC)", "setting": "primary NK cells", "result": "ADCC killing effect was observed"}, {"measurement": "Killing effect on primary NK cells", "setting": "primary NK cells", "result": 40, "unit": "%"}, {"measurement": "Killing effect towards neutrophils", "setting": "neutrophils", "result": "about 15%"}]}, {"molecule": "B3", "values": [{"measurement": "Killing effect on primary NK cells", "setting": "primary NK cells", "result": 20, "unit": "%"}]}, {"molecule": "B4", "values": [{"measurement": "Killing effect on monocytes", "setting": "monocytes", "result": "negligible killing effect"}]}, {"molecule": "B5", "values": [{"measurement": "Mean end tumor weight", "setting": "WaGa xenograft", "result": 0.08, "unit": "g"}]}]}
